The record followed here is patent US20040091974A1 (KIRIN BEER, published 2004).

cellulose membrane = peptide bound to a cellulose membrane through the C-terminus

Experiment [1] addresses T1, 13-mer peptide, amino acids 61 to 73 of the HLA-DR β chain (DRB1*15011) (human).
T1 peptide: Ac-WNSQKDILEQARA-{cellulose membrane}
Nature of the experiment: SPOT 13-mer peptide array on cellulose membrane, chemiluminescence. The method, then: (§1) The epitope of each antibody was analyzed by Western blotting in accordance with a conventional technique. In simple terms, a cellulose or PVDF membrane was blocked with Block Ace (Yukijirushi), etc., each antibody was allowed to react therewith at 1 μg/mL as a primary antibody and at 0.5 μg/mL as a secondary antibody using […], the HRP-labeled anti-human antibody (e.g., DAKO) was allowed to react therewith, and the chemiluminescence was detected using a chemiluminescent reagent (e.g., ECL Western blotting detection reagent, Amersham Bioscience) and a chemiluminescence detector (e.g., LAS-1000, Fuji Film).
(§2) The subsequent reaction was carried out based on conventional Western blot analysis (see, for example, Reineke, U. et al., (2001), “Epitope mapping with synthetic peptides prepared by SPOT synthesis.” Antibody Engineering (Springer Lab Manual) Eds.: Kontermann/Dubel, 433459). In the analysis, LumilmagerTM (Boehringer-Mannheim) was used to represent the color intensity in each spot by numerical values.

In another experiment the target is T2, SEQ ID NO 24 (human).
T2 peptide: Ac-WNSQKDFLEDRRA-{cellulose membrane}
The experiment in a line: polymorphic 61-73 peptide spots, chemiluminescence. The method, then: as §1
(§3) The subsequent reaction was carried out based on conventional Western blot analysis (see, for example, Reineke, U. et al., (2001), “Epitope mapping with synthetic peptides prepared by SPOT synthesis.” Antibody Engineering (Springer Lab Manual) Eds.: Kontermann/Dubel, 433459). In the analysis, LumilmagerTM (Boehringer-Mannheim) was used to represent the color intensity in each spot by numerical values. […]

For a further experiment, the target named is T3, SEQ ID NO 25 (human).
T3 peptide: Ac-WNSQKDFLERRRA-{cellulose membrane}
The experiment in a line: polymorphic 61-73 peptide spots, chemiluminescence. As to the method: as §1, §3

Another experiment concerns the target T4, SEQ ID NO 26 (human).
T4 peptide: Ac-WNSQKDFLEDERA-{cellulose membrane}
The experiment in a line: polymorphic 61-73 peptide spots, chemiluminescence. The method, then: as §1, §3

Another experiment deals with T5, SEQ ID NO 27 (human).
T5 peptide: Ac-WNSQKDFLEQARA-{cellulose membrane}
The experiment in a line: polymorphic 61-73 peptide spots, chemiluminescence. The method, then:
as §1, §3

Another experiment addresses T6, SEQ ID NO 28 (human).
T6 peptide: Ac-WNSQKDILEDERA-{cellulose membrane}
Nature of the experiment: polymorphic 61-73 peptide spots, chemiluminescence. The method, then:
as §1, §3

The target in a further experiment is T7, SEQ ID NO 29 (human).
T7 peptide: Ac-WNSQKDILEQKRG-{cellulose membrane}
The experiment in a line: polymorphic 61-73 peptide spots, chemiluminescence. The method, then:
as §1, §3

In a further experiment the target is T8, SEQ ID NO 30 (human).
T8 peptide: Ac-WNSQKDILEDRRA-{cellulose membrane}
Nature of the experiment: polymorphic 61-73 peptide spots, chemiluminescence. As to the method: as §1, §3

The target of the next experiment is T9, SEQ ID NO 31 (human).
T9 peptide: Ac-WNSQKDILEDRRG-{cellulose membrane}
The experiment in a line: polymorphic 61-73 peptide spots, chemiluminescence. As to the method:
as §1, §3

The next experiment deals with T10, SEQ ID NO 32 (human).
T10 peptide: Ac-WNSQKDILEDKRA-{cellulose membrane}
The experiment in a line: polymorphic 61-73 peptide spots, chemiluminescence. As to the method:
as §1, §3

The target of a further experiment is T11, SEQ ID NO 33 (human).
T11 peptide: Ac-WNSQKDILEQARA-{cellulose membrane}
Nature of the experiment: polymorphic 61-73 peptide spots, chemiluminescence. The method, then:
as §1, §3

In another experiment the target is T12, SEQ ID NO 34 (human).
T12 peptide: Ac-WNSQKDLLEQRRA-{cellulose membrane}
Nature of the experiment: polymorphic 61-73 peptide spots, chemiluminescence. As to the method:
as §1, §3

A further experiment deals with T13, SEQ ID NO 35 (human).
T13 peptide: Ac-WNSQKDLLEQARA-{cellulose membrane}
Nature of the experiment: polymorphic 61-73 peptide spots, chemiluminescence. As to the method: as §1, §3

The target in the next experiment is T14, SEQ ID NO 36 (human).
T14 peptide: Ac-WNSQKDLLEQKRG-{cellulose membrane}
Nature of the experiment: polymorphic 61-73 peptide spots, chemiluminescence. As to the method:
as §1, §3

Another experiment concerns the target T15, SEQ ID NO 37 (human).
T15 peptide: Ac-WNSQKDLLEDRRA-{cellulose membrane}
The experiment in a line: polymorphic 61-73 peptide spots, chemiluminescence. As to the method: as §1, §3

The target of another experiment is T16, SEQ ID NO 38 (human).
T16 peptide: Ac-WNSQKDLLERRRA-{cellulose membrane}
Nature of the experiment: polymorphic 61-73 peptide spots, chemiluminescence. As to the method:
as §1, §3

The target of the next experiment is T17, SEQ ID NO 39 (human).
T17 peptide: Ac-WNSQKDLLEDERA-{cellulose membrane}
Nature of the experiment: polymorphic 61-73 peptide spots, chemiluminescence. The method, then:
as §1, §3

The next experiment addresses T18, SEQ ID NO 40 (human).
T18 construct: The entry already carries the substitution
T18 peptide: Ac-WNSQKDALEQRRA-{cellulose membrane}
Nature of the experiment: alanine-substituted 61-73 peptide spots, chemiluminescence. As to the method:
as §1, §2
(§4) Further, 12 peptides (SEQ ID Nos: 40 to 51) in which each amino acid has been substituted with alanine ([…] if it is originally alanine) were subjected to Western blotting under similar conditions. In the analysis, LAS2000 and ImageGauge analyzing software (Fuji Photo Film) were used to represent the color intensity in each spot by numerical values.

A further experiment concerns the target T19, SEQ ID NO 41 (human).
T19 construct: The entry already carries the substitution
T19 peptide: Ac-WNSQKDLLEARRA-{cellulose membrane}
The description is as above. The method, then: as §1, §2, §4

For the next experiment, the target named is T20, SEQ ID NO 42 (human).
T20 construct: The entry already carries the substitution
T20 peptide: Ac-WNSQKDLLEQARA-{cellulose membrane}
Described as above. The method, then:
as §1, §2, §4

Another experiment deals with T21, SEQ ID NO 43 (human).
T21 construct: The entry already carries the substitution
T21 peptide: Ac-WNSQKDLLEQRRG-{cellulose membrane}
The description is as above. As to the method:
as §1, §2, §4

The next experiment concerns the target T22, SEQ ID NO 44 (human).
T22 construct: The entry already carries the substitution
T22 peptide: Ac-ANSQKDLLEQRRA-{cellulose membrane}
Described as above. As to the method: as §1, §2, §4

For a further experiment, the target named is T23, SEQ ID NO 45 (human).
T23 construct: The entry already carries the substitution
T23 peptide: Ac-WASQKDLLEQRRA-{cellulose membrane}
The experiment is described as above. The method, then:
as §1, §2, §4

The next experiment deals with T24, SEQ ID NO 46 (human).
T24 construct: The entry already carries the substitution
T24 peptide: Ac-WNAQKDLLEQRRA-{cellulose membrane}
The description is as above. The method, then:
as §1, §2, §4

The target of a further experiment is T25, SEQ ID NO 47 (human).
T25 construct: The entry already carries the substitution
T25 peptide: Ac-WNSAKDLLEQRRA-{cellulose membrane}
The experiment is described as above. The method, then: as §1, §2, §4

Another experiment deals with T26, SEQ ID NO 48 (human).
T26 construct: The entry already carries the substitution
T26 peptide: Ac-WNSQADLLEQRRA-{cellulose membrane}
The experiment is described as above. The method, then:
as §1, §2, §4

The next experiment addresses T27, SEQ ID NO 49 (human).
T27 construct: The entry already carries the substitution
T27 peptide: Ac-WNSQKALLEQRRA-{cellulose membrane}
The experiment is described as above. As to the method: as §1, §2, §4

A further experiment deals with T28, SEQ ID NO 50 (human).
T28 construct: The entry already carries the substitution
T28 peptide: Ac-WNSQKDLLAQRRA-{cellulose membrane}
The experiment is described as above. As to the method: as §1, §2, §4

A further experiment has as its target T29, SEQ ID NO 51 (human).
T29 construct: The entry already carries the substitution
T29 peptide: Ac-WNSQKDLLEQRAA-{cellulose membrane}
The experiment is described as above. The method, then: as §1, §2, §4

Experiment [2] concerns the target T30, 13-mer peptide, amino acids 65 to 77 of the HLA-DR β chain (DRB1*15011) (human).
T30 peptide: Ac-KDILEQARAAVDT-{cellulose membrane}
The experiment in a line: SPOT 13-mer peptide array on cellulose membrane, chemiluminescence. As to the method: as §1, §2

B1: HD4 (antibody, IgG1, V domains shown)
VH: EVQLLESGGGLVQPGGSLRLSCAASGFTFSSYAMTWVRQAPGKGLEWVSGISGGGDSTYYADSVKGRFTISRDNSKNTLYLQMNSLRAEDTAVYYCARDHGSGSYYPYWFDYWGQGTLVTVSS
VL: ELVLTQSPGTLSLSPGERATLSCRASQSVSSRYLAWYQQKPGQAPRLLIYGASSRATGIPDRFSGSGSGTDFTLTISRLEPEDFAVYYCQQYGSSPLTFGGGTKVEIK
notes: also called antibody produced from the hybridoma HD4 (FERM BP-7771)
For B1, the binding result in [1] is “binds”.

B2: HD8 (antibody, IgG2, V domains shown)
VH: QVQLQHSGPGLVKPSQTLSLTCAISGDSVSSNSASWNWIRQSPSRGLEWLGRTYYRSKWYNDYAVSVKSRIVINPDTSKNQFSLQLNSVTPEDTAVYYCARENFYGSETCHKKYYCYGMDVWGQGTTVTVSS
VL: AIQLTQSPSSLSASVGDRVTITCRASQGISSALAWYQQKPGKAPKLLIYDASSLESGVPSRFSGSGSGTDFTLTISSLQPEDFATYYCQQFNSFPLTFGGGTKVEIK
notes: also called antibody produced from the hybridoma HD8 (FERM BP-7773)
Turning to B2, the binding result with SEQ ID NO 24, with SEQ ID NO 25, with SEQ ID NO 26, with SEQ ID NO 27, with SEQ ID NO 28 and with SEQ ID NO 29 was “binds” in each case. The binding result with SEQ ID NO 30, in the experiment with SEQ ID NO 31, in the experiment with SEQ ID NO 32, in the experiment with SEQ ID NO 33, with SEQ ID NO 34 and with SEQ ID NO 35 was “binds” in each case. The binding result in the experiment with SEQ ID NO 36, in the experiment with SEQ ID NO 37, with SEQ ID NO 38, in the experiment with SEQ ID NO 39, with SEQ ID NO 40 and with SEQ ID NO 41 was “binds” each time. Moreover, the binding result in the experiment with SEQ ID NO 42, with SEQ ID NO 43, with SEQ ID NO 44, with SEQ ID NO 45, in the experiment with SEQ ID NO 46 and with SEQ ID NO 47 was “binds” each time. The binding result with SEQ ID NO 48 is “no binding (tested: 1 µg/mL)”; with SEQ ID NO 49, “no binding (tested: 1 µg/mL)”; with SEQ ID NO 50 it was “no binding (tested: 1 µg/mL)”; in the experiment with SEQ ID NO 51, “no binding (tested: 1 µg/mL)”; in experiment [1], “binds”; in experiment [2], “binds”.
